The values below come from US20250382353A1 (published 2025).

Targets include rVSV-Delta spike (SARS-CoV-2 Delta, UniProt P0DTC2 14-1252); BA.2; rVSV Beta spike (SARS-CoV-2 Beta, UniProt P0DTC2 14-1252).
Holding throughout (experiment): SPR
The target of assay [1] is SARS-CoV-2 Omicron BA.1 spike (SARS-CoV-2 Omicron BA.1, UniProt P0DTC2 14-1208).

B1: Fab 2A10 (antibody, V domains shown)
VH: QVQLVESGGGLIQPGGSLRLSCAASEFIVSSNYMSWVRQAPGKGLEWVSLLYSGGTTYYADSVKGRFTISRDNSKNTLFLQMNSLRAEDTAMYYCARDRGPWLHDYWGQGTLVTVS
VL: DIVMTQSPSSLSASVGDRVTITCQASQDINKYCNWYQQKPGKAPKLLIYDASNLETGVPSRFSGSGSGTDFTFTINSLQPEDIATYYCQQYDNLPPTFGGGTKVEIK
B1: the dissociation constant (Kd) came to 4.42 nM in assay [1] and 0.132 nM with rVSV-Delta spike.

B2: Fab 1C3 (Fab, V domains shown)
VH: QVQLLESGGGLVQPGRSLRLSCAASGFTFDDYAMHWVRQPPGKGLEWVSGSSWNSGSVVYADSVKGRFTISRDSAKNSLHLQMNSLRVEDTALYYCAKAVDPTRGSYSPDYGFDIWGQGTMVTVS
VL: not shown
Regarding B2, in the assay with BA.2, binding was put at a Kd of 0.023 nM.

B3: 1C3 antigen-binding fragment (Fab) (Fab, V domains shown)
VH: QVQLLESGGGLVQPGRSLRLSCAASGFTFDDYAMHWVRQPPGKGLEWVSGSSWNSGSVVYADSVKGRFTISRDSAKNSLHLQMNSLRVEDTALYYCAKAVDPTRGSYSPDYGFDIWGQGTMVTVS
VL: not shown
Turning to B3, the Kd turned out to be 0.041 nM in assay [1], 0.039 nM with rVSV Beta spike and 0.036 nM with rVSV-Delta spike.
